Data: US20140294731A1 (AC IMMUNE S A, published 2014)
Where a chain is given by its changes, count along the chain named. One block for each binder: values may come before it. Where no end group is shown, it is not given here. [ ]: non-standard residue; d: D form. The star is where a group is joined. Biotin = O=C1N[C@H]2[C@H](CS[C@H]2CCCCC(=O)*)N1; pS = N[C@@H](COP(=O)(O)O)C(=O)O; LC linker = not defined here

Key:
[1] = target: T1, T3.30: Biotin-LC linker-GVYKS[PO3H2]PVVSGDTS[PO3H2]PRHL-NH2 (reading uncertain; also: printed as Biotin-LC linker-GVYKS[PO3H2]PVVSGDTS[PO3H2]PRHL-NH2); assay: SPR (Biacore X), T3.30 on streptavidin chip, antibody injected, 1:1 Langmuir fit; peptide lot 87% pure
T1 construct: Human Tau 393-408 with an added N-terminal Gly; two lots used: MI89P9-P12-2 (64% pure) and MI89P9-P12-3 (87% pure); also called Phospho-tau peptide; phosphopeptide T3.30
T1 peptide: {Biotin-LC linker}-GVYK[pS]PVVSGDT[pS]PRHL-NH2
Protocol: (§1) All SPR experiments were carried out on a Biacore X instrument (GE Healthcare). Sensor chip SA (Streptavidin derivatized carboxymethyl dextran) was purchased from GE Healthcare. Running buffer was PBS (Dulbecco's PBS, Sigma D8537). Non-covalently bound Streptavidin was firstly removed from the sensor surface by injecting 8 pulses (each ˜1 μL) of 16 mM NaOH (aq). Phospho-tau peptide was then solubilized in PBS to give a final peptide concentration of 1 μM and then injected (35 μL) over flow cell (fc) 2 of the sensor chip at 5 μl/min. After coupling, a final immobilization level of 130 RUs was obtained. To study the binding of the antibodies to the chip surface, several concentrations of antibodies were prepared by serial 2-fold dilutions with running buffer. The injections were performed over both fc 1 and 2 at a flow rate of 50 μL/min for 120 s. Flow cell 1 was not derivatized and responses of fc 1 were subtracted from fc 2 to correct for instrument noise and bulk refractive changes. After each injection, the surfaces were washed immediately with running buffer for 100s. To remove any remaining bound antibody from the chip, surface regeneration was performed by injecting 1 μL of 10 mM Glycine-HCl pH 1.7. Kinetic analyses were performed using algorithms for numerical integration and global analysis using BIAevaluation 3.0. The sensograms obtained for injections of antibody at different concentrations were overlaid and the baselines adjusted to zero. For curve fitting, all data were fit simultaneously to a 1:1 homogeneous (Langmuir) model.

[2] = target: T1, T3.30: Biotin-LC …; assay: SPR (Biacore X), T3.30 on streptavidin chip, antibody injected, 1:1 Langmuir fit; peptide lot 64% pure
Protocol: as §1

[3] = target: T2, pTau peptide T3.5: Tau393-408 [pS396/pS404] (human); assay: hybridoma supernatant ELISA screen (conclusion of Example 1)
T2 construct: Synthetic peptide (PolyPeptide Laboratories), coated on ELISA plates at 10 µg/mL; also called Tau p-peptide; T3: Tau 393-408 [pS396, pS404]
T2 peptide: VYK[pS]PVVSGDT[pS]PRHL
Protocol: (§2) Hybridomas ELISA screen was performed on pTau peptide (ACl-35, T3.5: Tau393-408[pS396/pS404; PolyPeptide Laboratories, Hillerød, Denmark), the corresponding non-phosphorylated Tau peptide (T3.6: Tau393-408, PolyPeptide Laboratories), phosphorylated full-length (441aa) Tau protein (pTau protein, Vandebroek et al., 2005) and full-length (441aa) Tau protein (Tau protein, SignalChem, Richmond, Canada). Finally Bovine Serum Albumin (BSA) was used as negative control.
(§3) Plates were coated with 10 μg/ml of corresponding Tau peptide and 1 μg/ml of corresponding Tau protein overnight at 4° C. After washing each well with PBS-0.05% Tween 20 and blocking with 1% BSA in PBS-0.05% Tween 20, undiluted hybridoma supernatant or medium negative control were added to the plates and incubated at 37° C. for 2 hours. After washing plates were incubated with an alkaline phosphatase (AP)-conjugated anti-mouse IgG total antibody (Jackson Laboratories, Baltimore, Pa., USA) for 2 hours at 37° C. After washing plates were incubated with pNPP (para-nitro-phenyl-phosphate), the phosphatase substrate for AP, and read at 405 nm using an ELISA plate reader. Results are expressed as O.D. (Optical Density).

[4] = target: T3, non-phosphorylated Tau peptide T3.6: Tau393-408 (human); assay: as above
T3 construct: Synthetic peptide (PolyPeptide Laboratories); also called non-phospho counterpart of the antigenic peptide; non-phospho-peptide
T3 peptide: VYKSPVVSGDTSPRHL
Protocol: as §2, §3

[5] = target: T4, full-length (441 aa) Tau protein (SignalChem) (human, UniProt P10636 1-758); assay: ELISA, plate-coated protein; grade (+ Good binding)
T4 construct: Bought recombinant protein; also called Full-length Tau; non-phospho full-length Tau protein

[6] = target: T4, full-length (441 aa) Tau protein …; assay: ELISA, plate-coated protein
[7] = target: T5, phosphorylated full-length (441 aa) Tau protein (human, UniProt P10636 1-758, phosphorylated; the sites are not stated (preparation cited as Vandebroek et al., 2005)); assay: ELISA, plate-coated protein
T5 construct: Full-length 441 aa Tau; Coated at 1 µg/mL; also called pTau protein; Full-length pTau
T5 sequence (P10636 other isoform, or with tags, fused parts or gaps limits assumed): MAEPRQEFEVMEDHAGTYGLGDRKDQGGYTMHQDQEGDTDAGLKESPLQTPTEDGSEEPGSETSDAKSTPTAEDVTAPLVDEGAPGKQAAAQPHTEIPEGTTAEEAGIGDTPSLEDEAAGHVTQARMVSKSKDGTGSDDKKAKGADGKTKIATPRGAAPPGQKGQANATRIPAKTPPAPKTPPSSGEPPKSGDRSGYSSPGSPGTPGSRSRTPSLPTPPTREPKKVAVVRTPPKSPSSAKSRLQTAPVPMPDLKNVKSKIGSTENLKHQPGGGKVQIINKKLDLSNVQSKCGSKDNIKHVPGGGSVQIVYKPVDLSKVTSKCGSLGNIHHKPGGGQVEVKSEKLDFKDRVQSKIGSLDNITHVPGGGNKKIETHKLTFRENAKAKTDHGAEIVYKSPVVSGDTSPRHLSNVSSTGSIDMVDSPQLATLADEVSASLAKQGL

T4 sequence (P10636 other isoform, or with tags, fused parts or gaps limits assumed): as above

Kd [1]: 82 nM | koff [1]: 0.0018 s⁻¹ | kon [1]: 22000 M⁻¹ s⁻¹ | Kd [2]: ≤ 6 nM | koff [2]: 9.3e-06 s⁻¹ | kon [2]: 1600 M⁻¹ s⁻¹
B1: ACI-35-1D2-Ab1 (antibody, IgG2a, V domains shown)
VH: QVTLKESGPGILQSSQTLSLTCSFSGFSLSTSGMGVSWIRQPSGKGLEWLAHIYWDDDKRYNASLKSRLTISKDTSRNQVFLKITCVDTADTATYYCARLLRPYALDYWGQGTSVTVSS
VL: NILMTQSPSSLAVSAGEKVTMSCKSSQSVLYSSNQKNYLAWYQQKPGQSPKLLIYWASTRESGVPDRFTGSGSGTDFTLTISSVQAEDLAVYYCLQYLSSLTFGAGTKLELK
notes: Biotinylated (-BT) in the AlphaLISA; also called ACl-35-1D2-Ab1; hybridoma A6-1D2-12

Kd [1]: 38 nM | koff [1]: 0.001 s⁻¹ | kon [1]: 27000 M⁻¹ s⁻¹
B2: ACI-35-2A1-Ab1 (antibody, IgG2b, V domains shown)
VH: EVQLQQSGPELVKPGASVKISCKASGYTFTDYYMNWVKQSHGKSLEWIGDINPNNGGTSYNQKFKGKATLTVDKSSSTAYMELRSLTSEDSAVYYCVREGRFAYWGHGTLVTVSA
VL: DIVMTQAAPSVPVTPGESVSISCRSSKSLLHSNGNTYLYWFLQRPGQSPQLLIHRMSNLASGVPDRFSGSGSGTAFTLRISRVEAEDVGVYYCMQHLKSPYTFGGGTKLEIK
notes: Biotinylated (-BT) in the AlphaLISA and as detector in the Setup 1 ELISA; also called ACl-35-2A1-Ab1; hybridoma A4-2A1-18

Kd [1]: 2 nM | koff [1]: 3.8e-05 s⁻¹ | kon [1]: 17000 M⁻¹ s⁻¹
B3: ACI-35-2G5-Ab3 (antibody, IgG2b, V domains shown)
VH: B2 VH with Y27F, N61H, H107Q
VL: DIVMTQSQKFMSTSVGDRVSVTCKASQNVGTNVAWYQQKPGQSPKALIYSASYRYSGVPDRFTGSGSGTDFTLTISNVQSEDLAEYFCQQYNSYPYTFGGGTKLEIK
notes: Biotinylated (-BT) in the AlphaLISA and as detector in the Setup 1 ELISA; also called ACl-35-2G5-Ab3; ACl-35-2G5-AB3

Kd [1]: 10 nM | koff [1]: 0.00023 s⁻¹ | kon [1]: 24000 M⁻¹ s⁻¹
B4: ACI-35-2G5-Ab2 (antibody, IgG2b, V domains shown)
VH: B2 VH with Y27F, N61H, H107Q
VL: B3 VL
notes: also called ACl-35-2G5-Ab2; ACl-35-2G5-AB2

binding result [3]: binds | binding result [4]: binds
B5: ACI-35-4A6-Ab2 (antibody, V domains shown)
VH: B2 VH
VL: B2 VL with H54Y
notes: also called ACl-35-4A6-Ab2; hybridoma A4-4A6-48

Kd [1]: 15 nM | koff [1]: 0.0017 s⁻¹ | kon [1]: 110000 M⁻¹ s⁻¹ | binding result [5]: binds | Kd [2]: 16 nM | koff [2]: 0.0031 s⁻¹ | kon [2]: 200000 M⁻¹ s⁻¹
B6: ACI-35-4A6-Ab1 (antibody, IgG2b, V domains shown)
VH: QVQLQQPGAELLKPGASVKLSCKASGYTFTSYWMHWVKQRPGRGLEWIGRIDPNSDRTKYNEKFKRKATLTVDKSSSTAYMQLSSLTSEDSAVYYCARDDYAWFAYWGQGTLVTVSA
VL: DVLMTQTPLSLPVSLGDQASISCRSSQSIVHSNGNTYLEWYLQKPGQSPKLLIYKLSNRFSGVPDRFSGSGSGTDFTLKISRVEAEDLGVYYCFQGSHVPPTFGGGTKLEIK
notes: also called ACl-35-4A6-Ab1; hybridoma A4-4A6-18

Kd [1]: 70 nM | koff [1]: 0.0022 s⁻¹ | kon [1]: 32000 M⁻¹ s⁻¹ | Kd [2]: 10 nM | koff [2]: 0.0053 s⁻¹ | kon [2]: 480000 M⁻¹ s⁻¹
B7: ACI-35-2G5-Ab1 (antibody, IgG2a, V domains shown)
VH: QVQLKQSGAELVRPGASVKLSCKASGYTFTDYYINWVKQRPGQGLEWIARIYPGRGNIYYNEKFKGKATLTAEKSSSTAYMQLSSLTSEDSAVYFCARFWDVTYWGQGTLVTVSA
VL: B6 VL with Y41F, L56V, P101Y
notes: also called ACl-35-2G5-Ab1; ACl-35-2G5-AB1
binding result [6]: no binding (tested: up to 20 µg/mL antibody) | binding result [7]: no binding (tested: up to 20 µg/mL antibody)
